Substitutions are numbered along the chain they refer to.

The labels stand for the following.
T1: huCD98hc ECD Avi-His (human, UniProt P08195 105-529)
T1 construct: biotinylated on the Avi tag where captured on streptavidin; also called Human CD98-AVI-His; Human CD98hc-AVI-His
T1 sequence: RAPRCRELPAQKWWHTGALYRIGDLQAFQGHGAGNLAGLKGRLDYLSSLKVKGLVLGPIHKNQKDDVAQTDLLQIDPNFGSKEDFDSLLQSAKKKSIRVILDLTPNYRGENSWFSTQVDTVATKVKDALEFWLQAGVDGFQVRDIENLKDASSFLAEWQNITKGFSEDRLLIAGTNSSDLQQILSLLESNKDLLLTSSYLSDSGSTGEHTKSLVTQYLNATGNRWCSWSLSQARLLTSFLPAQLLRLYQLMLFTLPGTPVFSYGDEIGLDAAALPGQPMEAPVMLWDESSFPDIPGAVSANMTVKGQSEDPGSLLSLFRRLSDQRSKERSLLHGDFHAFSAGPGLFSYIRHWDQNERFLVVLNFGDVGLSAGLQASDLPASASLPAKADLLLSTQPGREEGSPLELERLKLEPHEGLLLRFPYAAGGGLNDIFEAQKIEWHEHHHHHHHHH

T2: Cyno CD98hc ECD Avi-His (cynomolgus macaque, UniProt P08195 105-529 (human entry))
T2 construct: biotinylated on the Avi tag where captured on streptavidin; also called Cyno CD98-AVI-His; Cyno CD98hc-AVI-His
T2 chain: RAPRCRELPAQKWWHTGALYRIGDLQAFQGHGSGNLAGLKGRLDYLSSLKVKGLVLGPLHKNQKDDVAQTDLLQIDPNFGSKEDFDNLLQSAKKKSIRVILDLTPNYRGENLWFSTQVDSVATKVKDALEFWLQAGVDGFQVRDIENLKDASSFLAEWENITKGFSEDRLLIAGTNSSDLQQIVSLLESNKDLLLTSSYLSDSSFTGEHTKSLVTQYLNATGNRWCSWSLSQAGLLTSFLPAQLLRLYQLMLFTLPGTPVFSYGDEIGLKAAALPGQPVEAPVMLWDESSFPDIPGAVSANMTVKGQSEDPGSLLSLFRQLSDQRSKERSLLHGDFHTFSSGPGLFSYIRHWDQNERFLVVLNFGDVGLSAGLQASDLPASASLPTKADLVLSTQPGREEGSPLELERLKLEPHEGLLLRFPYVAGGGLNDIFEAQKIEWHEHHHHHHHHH

B1: CD98hc.04.064.4d (humanized, 2+1 format) (bispecific antibody)
scFv: QVQLVQSGAEVKKPGASVKVSCKASGYTFTSYWMHWVRQAPGQGLEWMGIIDPSDSETSYAQKFQGRVTMTRDTSTSTVYMELSSLRSEDTAVYYCARASYGKGYFDYWGQGTLVTVSSGGSEGKSSGSGSESKSTGGSDIQMTQSPSSLSASVGDRVTITCRASQSLLNNINQKNYLAWYQQKPGKAPKLLIYFASSLQSGVPSRFSGSGSGTDFTLTISSLQPEDFATYYCQQHYSSPFTFGGGTKVEIK
notes: tested as 2+1 bispecific (scFv on an IgG)
B2: CD98hc.04.064.1d (humanized, 2+1 format) (bispecific antibody)
scFv: QVQLVQSGAEVKKPGASVKVSCKASGYTFTSYWMNWVRQAPGQGLEWMGIIDPSDSETSYAQKFQGRVTMTVDKSTSTVYMELSSLRSEDTAVYYCARASYGKGYFDYWGQGTLVTVSSGGSEGKSSGSGSESKSTGGSDIVMTQSPDSLAVSLGERATINCKSSQSLLNNINQKNYLAWYQQKPGQPPKLLIYFASTRESGVPDRFSGSGSGTDFTLTISSLQAEDVAVYYCQQHYSSPFTFGGGTKVEIK
notes: as for B1
B3: CD98hc.04.064.1e (humanized, 2+1 format) (bispecific antibody)
scFv: B2 scFv with N35H, S59H
notes: as for B1
B4: CD98hc.04.064.4a (humanized, 2+1 format) (bispecific antibody)
scFv: B2 scFv with S59N, M70S, T76I, V79A, S85R, E89D, A92V
notes: as for B1
B5: CD98hc.04.064.4b (humanized, 2+1 format) (bispecific antibody)
scFv: B2 scFv with S59N, M70S, T76I, V79A, S85R, E89D, A92V, Y232F
notes: as for B1
B6: CD98hc.04.064.4c (humanized, 2+1 format) (bispecific antibody)
scFv: B2 scFv with N35H, S59N, M70S, T76I, V79A, S85R, E89D, A92V
notes: as for B1

For the first test, the target named is T1, huCD98hc ECD Avi-His. Nature of the test: SPR, Biacore T200, anti-kappa capture. As for the experimental part:
(§1) Binding kinetics of 2+1 anti-CD98hc bispecific antibodies to recombinant human and cynomolgus CD98hc ECD Avi-His were evaluated using a Biacore T200 instrument (Global Life Sciences Solutions USA LLC, Marlborough, MA). The 2+1 anti-CD98hc bispecific antibodies were prepared by diluting to 50 μg/mL in running buffer HBS-EP+ (Teknova) with 0.5 mg/mL BSA (MP Biomedicals) and captured by a goat anti-human kappa polyclonal antibody (Southern Biotech) surface that was prepared according to the instrument manufacturer's recommendations. Two independent experiments were performed as follows, resulting in an N of between one and […] determinations for each antibody. Estimates of affinity were generated by injecting each analyte over captured antibody on Flowcell 2, 3, or 4. CD98hc ECD Avi-His analytes were diluted with running buffer, in a series of five, three-fold serial dilutions starting from 600 nM. Analytes were injected without regeneration, from lowest to highest concentration, for 5 minutes each, and dissociation was followed for 15 minutes. After each analyte injection series, antibodies were regenerated with 10 mM glycine pH 2.0 buffer (Cytiva). Data were processed and analyzed using Biacore T200 BiaEvaluation software (Cytiva).
(§2) The equilibrium dissociation constants (KD) were calculated from the fitted association and dissociation rate constants (k-on and k-off) for 2+1 anti-CD98hc bispecific antibodies of the present disclosure binding to human and cynomolgus CD98hc ECD Avi-His. For measurements with N>1, means and standard deviation were calculated and measurements for all samples were combined and graphed using GraphPad Prism.
(In SPR one partner is held on a chip, and binding of the other changes the refractive index at the surface.)
The Kd is the concentration at which binding is half-saturated. Higher therefore signals weaker binding. Turning to B1, binding was put at a Kd of 0.012 µM.
Regarding B2, the Kd worked out at 0.024 µM.
As to B3, the Kd stood at 0.013 µM.
Same read-out and setting: then B4, with 0.034 µM; and B5, with 0.03 µM; and B6, with 0.017 µM.

Another test concerns the target T2, Cyno CD98hc ECD Avi-His. Nature of the test: SPR, Biacore T200, anti-kappa capture. On the procedure:
as §1, §2
Regarding B1, binding was characterised by a dissociation constant (Kd) of 0.16 µM.
The molecule B2 had a Kd of 0.36 µM.
B3 yielded a Kd of 0.12 µM.
Same read-out and setting: the result for B4 reads 0.43 µM; that for B5, 0.62 µM; that for B6, 0.31 µM.

The target in another test is T1, huCD98hc ECD Avi-His. The experiment in a line: SPR, Biacore T200, Protein A/G capture. As for the experimental part: (§3) Binding kinetics of humanized anti-CD98hc antibodies were evaluated using the Biacore T200 (Cytiva). Briefly, IgGs were diluted to 10 μg/mL and captured using a Protein A/G (ThermoFisher, #21186) surface on a CM5 chip that was prepared by amine coupling according to the instrument manufacturer's recommendations. The captured antibodies were tested for their ability to bind human and cynomolgus monkey CD98hc as follows.
(§4) Each sample was injected for 2 minutes to allow association, followed by dissociation in buffer alone for 10 minutes. Each sample injection was followed by the regeneration of the chip with three 30-second injections of 10 mM glycine pH 1.7. Fresh antibody was captured at the beginning of each cycle.
(§5) Data were analyzed using Biacore evaluation software to generate kinetic constants. The equilibrium dissociation constants (KD) were calculated from the fitted association and dissociation rate constants (k-on and k-off) for each of the anti-CD98hc antibodies.
On to B1, for which the affinity, expressed as Kd, was 0.018 µM.
The molecule B2 gave a Kd of 0.035 µM.
On the same count and under the same terms, the result for B3 reads 0.025 µM.

Another test concerns the target T2, Cyno CD98hc ECD Avi-His. Nature of the test: SPR, Biacore T200, Protein A/G capture. As for the experimental part:
as §3, §4, §5
The molecule B1 came in with a Kd of 0.34 µM.
On the same count and under the same terms, then B2, with 1.5 µM; and B3, with 0.74 µM.

The values are drawn from patent US20250270341A1 (Alector, published 2025).
